From patent US20110262922, “APTAMER SANDWICH ASSAYS” (POSCO, published 2011)

Key:
[1] = target: T1, Insulin receptor (IR) (Homo sapiens, UniProt P06213-2;P06213-2 P06213-2:28-746,P06213-2:751-944); test: filter; +/-1.08; 40 mM HEPES pH 7.5, 120 mM NaCl, 5 mM KCl, 5 mM MgCl2, 0.002% tween-20, 37 C; not competing with IR-13; conditions: tags: His-tagged; R&D Systems Cat# 1544-IR; chain copies: 2; label: 5'-32P
[2] = target: T1, Insulin receptor (IR); test: FP; placeholder; conditions: tags: His-tagged; R&D Systems Cat# 1544-IR; chain copies: 2; label: 5'-32P
[3] = target: T2, ERBB2 (HER2) (UniProt P04626 P04626:23-652); test: filter; +/-1.25; same buffer, 37 C; conditions: tags: His-tagged; R&D Systems Cat# 1129-ER; label: 5'-32P
Description: (§1) Aptamers identified using the above SELEX process were amplified by PCR and cloned as described above. Up to fifty randomly picked plasmid clones were sequenced. To verify that cloned aptamers bind to IR or ERBB2, aptamers that had same sequence in the aptamer pool were tested for binding affinity. Briefly, aptamers were incubated with various concentrations of target His-tagged proteins and the target His-tagged proteins were captured on Talon bead. Radio labeled aptamers that were bound to target proteins were then detected by phosphoimager.
(§2) Specifically, Aptamer-protein equilibrium dissociation constants (Kd's) were determined by the nitrocellulose-filter binding method as described by White et al. in Mol. Ther., 2001, 4(6), 567-73. For all binding assays, aptamers were dephosphorylated using alkaline phosphatase (New England Biolab) and labeled at the 5′-end using T4 polynucleotide kinase (New England Biolabs, Beverly, Mass.) and [γ³²P]ATP (Amersham Pharmacia Biotech, Piscataway, N.J.) as described by Fitzwater et al., in Methods Enzymol, 1996, 267, 275-301. […] The fraction of bound aptamer was quantified with a PhosphorImager (Fuji FLA-5100 Image Analyzer, Tokyo, Japan). […]

[4] = target: T1, Insulin receptor (IR); test: filter; +/-0.78; same buffer, 5 mM MgCl2, 37 C; conditions: tags: His-tagged; R&D Systems Cat# 1544-IR; chain copies: 2; label: 5'-32P
Description: as §1, §2

[5] = target: T1, Insulin receptor (IR); test: filter; +/-0.26; same buffer, 5 mM MgCl2, 37 C; conditions: tags: His-tagged; R&D Systems Cat# 1544-IR; chain copies: 2; label: 5'-32P
Description: as §1, §2

[6] = target: T1, Insulin receptor (IR); test: filter; +/-0.28; same buffer, 5 mM MgCl2, 37 C; conditions: tags: His-tagged; R&D Systems Cat# 1544-IR; chain copies: 2; label: 5'-32P
Description: as §1, §2

[7] = target: T2, ERBB2 (HER2); test: filter; +/-0.12; 40 mM HEPES pH 7.5, 120 mM NaCl, 5 mM KCl, 5 mM MgCl2, 0.002% tween-20, 37 C; conditions: tags: His-tagged; R&D Systems Cat# 1129-ER; label: 5'-32P
Description: as §1, §2

[8] = target: T2, ERBB2 (HER2); test: filter; +/-0.20; same buffer, 37 C; not competing with ERBB2-12; conditions: tags: His-tagged; R&D Systems Cat# 1129-ER; label: 5'-32P
[9] = target: T2, ERBB2 (HER2); test: filter; +/-0.39; same buffer, 37 C; conditions: tags: His-tagged; R&D Systems Cat# 1129-ER; label: 5'-32P
Description: as §1, §2

T1 sequence (P06213 other isoform, or with tags, fused parts or gaps, chain 1 of 2): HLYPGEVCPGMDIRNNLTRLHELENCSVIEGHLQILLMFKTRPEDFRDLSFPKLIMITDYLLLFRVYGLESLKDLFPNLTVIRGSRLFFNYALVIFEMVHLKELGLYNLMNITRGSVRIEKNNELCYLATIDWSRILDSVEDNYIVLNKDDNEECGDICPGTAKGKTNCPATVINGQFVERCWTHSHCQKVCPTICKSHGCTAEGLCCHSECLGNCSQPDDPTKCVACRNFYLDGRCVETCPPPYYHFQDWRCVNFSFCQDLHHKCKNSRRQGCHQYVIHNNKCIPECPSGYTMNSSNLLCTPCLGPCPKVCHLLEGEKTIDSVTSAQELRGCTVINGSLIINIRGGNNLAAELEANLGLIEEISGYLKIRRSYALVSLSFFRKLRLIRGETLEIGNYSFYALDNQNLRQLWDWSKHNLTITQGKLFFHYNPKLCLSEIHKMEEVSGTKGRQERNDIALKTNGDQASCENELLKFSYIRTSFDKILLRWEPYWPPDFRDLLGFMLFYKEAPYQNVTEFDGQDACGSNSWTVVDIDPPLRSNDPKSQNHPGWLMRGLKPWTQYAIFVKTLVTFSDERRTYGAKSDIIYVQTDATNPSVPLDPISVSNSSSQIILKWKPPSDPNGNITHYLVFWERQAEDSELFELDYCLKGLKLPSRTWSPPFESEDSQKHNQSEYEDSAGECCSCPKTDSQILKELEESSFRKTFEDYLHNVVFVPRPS
T1 sequence (P06213 763-956, chain 2 of 2): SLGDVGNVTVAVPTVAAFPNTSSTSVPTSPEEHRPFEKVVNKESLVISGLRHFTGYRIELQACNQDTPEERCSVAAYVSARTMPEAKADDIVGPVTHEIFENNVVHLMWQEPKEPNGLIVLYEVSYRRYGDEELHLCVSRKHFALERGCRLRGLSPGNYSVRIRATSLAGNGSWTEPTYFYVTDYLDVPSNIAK

B1: IR-6 (ssDNA)
DNA: GAGTGACCGTCTGCCTGTGGGTACAGTCTTTAGCTTACACAGGCTCCTGAAGACGCACAGCCACACCACCAGCC
[1]
  Kd: 4.6 nM
[2]
  Kd: 4.6 nM

B2: ERBB2-19 (ssDNA)
DNA: GAGTGACCGTCTGCCTGATTAGATGAAAGCGCATTCCAACAACAGATAATCTGAGGGCAGCCACACCACCAGCC
[3]
  Kd: 15.8 nM

B3: IR-13 (ssDNA)
DNA: GAGTGACCGTCTGCCTGTTATCCACTATGGCTTCTCATTCAAATAAGTGCGATCGATCAGCCACACCACCAGCC
[4]
  Kd: 4.83 nM

B4: IR-11 (ssDNA)
DNA: GAGTGACCGTCTGCCTGTAAGGTTTAAGCTTGGCCTAATGGTGCTATCAGGCTCAGCAGCCACACCACCAGCC
[5]
  Kd: 5.48 nM

B5: IR-25 (ssDNA)
DNA: GAGTGACCGTCTGCCTGAGATCCGACTGTTTACTGTTTAACAGCCGGCTGATGGACCCAGCCACACCACCAGCC
[6]
  Kd: 13.3 nM

B6: ERBB2-12 (ssDNA)
DNA: GAGTGACCGTCTGCCTGTCCTGGCATGTTCGATGGAGGCCTTTGATTACAGCCCAGACAGCCACACCACCAGCC
[7]
  Kd: 0.78 nM

B7: ERBB2-1 (ssDNA)
DNA: GAGTGACCGTCTGCCTGATGTTAGAGTTTGCCTGAGTGCCTCGTAAGGGCGTAACAACAGCCACACCACCAGCC
[8]
  Kd: 3.05 nM

B8: ERBB2-10 (ssDNA)
DNA: GAGTGACCGTCTGCCTGGTTAGACTGAACGCACTGAGGGCCGCAGCCTATCTGAAGGCAGCCACACCACCAGCC
[9]
  Kd: 3.7 nM
